According to paper PMC4456239:
Like-named read-outs stand apart in the source and are kept apart here. *: point of attachment. X2 = 4‑((4-methylpiperazin-1-yl)methyl)benzoic acid, CN1CCN(Cc2ccc(C(=O)*)cc2)CC1

Tests used:
Assay in all cases: other fluorescence titration
[1] = target: recombinant His-tagged human cyclin A2 (sequence 174-432) (human) (UniProt P20248)
[2] = target: recombinant His-tagged human cyclin A2 (sequence 174-432) (human) (UniProt P20248); remark: listed apart in the source
[3] = target: recombinant His-tagged human cyclin A2 (sequence 174-432) (human) (UniProt P20248); remark: listed apart in the source
[4] = target: recombinant His-tagged human cyclin A2 (sequence 174-432) (human) (UniProt P20248); remark: listed apart in the source
[5] = target: recombinant His-tagged human cyclin A2 (sequence 174-432) (human) (UniProt P20248); remark: listed apart in the source
[6] = target: recombinant His-tagged human cyclin A2 (sequence 174-432) (human) (UniProt P20248); remark: listed apart in the source
[7] = target: recombinant His-tagged human cyclin A2 (sequence 174-432) (human) (UniProt P20248); remark: listed apart in the source

UniProt P20248, sequence (P20248 174-432): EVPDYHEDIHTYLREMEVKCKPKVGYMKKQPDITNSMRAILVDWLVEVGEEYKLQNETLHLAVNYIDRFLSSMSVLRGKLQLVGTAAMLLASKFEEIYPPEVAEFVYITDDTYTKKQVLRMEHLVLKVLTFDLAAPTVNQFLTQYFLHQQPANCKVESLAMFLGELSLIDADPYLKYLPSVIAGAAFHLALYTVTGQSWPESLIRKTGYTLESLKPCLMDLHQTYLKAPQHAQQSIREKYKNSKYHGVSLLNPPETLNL

Kd [1]: 5.28 µM
Kd [2]: 6.77 µM
Kd [3]: 3.55 µM
Kd [4]: 4.77 µM
Kd [5]: 5.44 µM
Kd [6]: 3.21 µM
Kd [7]: 6.59 µM
Binder: X2-RLIF-NH2 [SCCP5921: 4-((4-methylpiperazin-1-yl)methyl)benzoic acid ligated to the p21 C-terminus, RLIF]
